This note sets out measurements from patent US20110065649A1.

In assay [1] the target is surface nucleolin on mouse cells (mouse), P09405. As to the kind of experiment: cell-based or functional assay.
Assay [2] addresses surface nucleolin on human cells (human), P19338. As to the kind of experiment: cell-based or functional assay.

Where only a bound is given, the exact number is not on record here.

Chain of surface nucleolin on human cells (human), P19338 (P19338 2-710): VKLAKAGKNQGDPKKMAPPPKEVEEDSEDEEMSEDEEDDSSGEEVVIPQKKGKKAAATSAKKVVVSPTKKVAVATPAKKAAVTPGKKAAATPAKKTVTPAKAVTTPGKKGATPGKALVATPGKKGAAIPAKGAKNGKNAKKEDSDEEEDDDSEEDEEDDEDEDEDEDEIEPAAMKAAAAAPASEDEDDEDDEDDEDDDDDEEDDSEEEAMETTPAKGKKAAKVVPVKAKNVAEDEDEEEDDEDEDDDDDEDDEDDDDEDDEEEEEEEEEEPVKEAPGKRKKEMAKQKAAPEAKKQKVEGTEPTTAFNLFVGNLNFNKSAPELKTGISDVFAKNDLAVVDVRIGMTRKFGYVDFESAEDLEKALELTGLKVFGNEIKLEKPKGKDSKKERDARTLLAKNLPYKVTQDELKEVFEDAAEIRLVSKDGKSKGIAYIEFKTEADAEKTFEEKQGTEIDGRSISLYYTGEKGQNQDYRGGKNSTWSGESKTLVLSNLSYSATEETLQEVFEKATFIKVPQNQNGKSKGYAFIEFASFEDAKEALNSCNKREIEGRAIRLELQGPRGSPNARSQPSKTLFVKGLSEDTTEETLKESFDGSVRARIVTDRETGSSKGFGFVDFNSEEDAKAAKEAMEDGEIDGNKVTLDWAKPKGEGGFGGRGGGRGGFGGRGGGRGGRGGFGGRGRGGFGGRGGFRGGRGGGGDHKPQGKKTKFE
Chain of surface nucleolin on mouse cells (mouse), P09405 (P09405 2-707): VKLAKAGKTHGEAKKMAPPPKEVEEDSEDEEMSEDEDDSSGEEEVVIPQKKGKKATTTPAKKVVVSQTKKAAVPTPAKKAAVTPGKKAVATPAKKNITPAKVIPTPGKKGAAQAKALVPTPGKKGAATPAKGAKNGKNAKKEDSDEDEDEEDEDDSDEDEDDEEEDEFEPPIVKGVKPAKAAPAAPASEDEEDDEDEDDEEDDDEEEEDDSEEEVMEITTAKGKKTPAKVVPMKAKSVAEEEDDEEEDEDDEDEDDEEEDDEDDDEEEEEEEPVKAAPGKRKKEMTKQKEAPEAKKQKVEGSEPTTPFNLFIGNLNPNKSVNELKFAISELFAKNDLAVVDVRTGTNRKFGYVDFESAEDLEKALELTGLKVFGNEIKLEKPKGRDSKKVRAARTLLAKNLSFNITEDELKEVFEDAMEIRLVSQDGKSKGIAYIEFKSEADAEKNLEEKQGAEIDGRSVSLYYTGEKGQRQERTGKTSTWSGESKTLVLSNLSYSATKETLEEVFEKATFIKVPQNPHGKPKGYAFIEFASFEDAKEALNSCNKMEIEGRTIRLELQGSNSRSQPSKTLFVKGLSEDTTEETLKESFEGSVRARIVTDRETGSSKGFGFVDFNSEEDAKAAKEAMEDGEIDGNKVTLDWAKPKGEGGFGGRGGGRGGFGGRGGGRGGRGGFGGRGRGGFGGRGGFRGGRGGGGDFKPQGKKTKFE

B1: hexavalent compound Nucant 7 (peptide)
chain: KAKPGKAKPGKAKPG
peptide: KPR
modifications: not checked
In the case of B1, the inhibition of TNF-alpha and IL-6 production by murine peritoneal macrophages stimulated by 10, 100 and 1000 ng/ml of LPS, at 10 µM of Nucant 7 in assay [1] is > 95%. Besides, in assay [2], the ID50 (Inhibitory Dose at 50%) of surface nucleolin activity in HeLa P4 cells is < 0.1 µM and the inhibition of surface nucleolin activity in HeLa P4 cells at 0.8 µM is > 95%.
